Molecular target: SerRS AA (Homo sapiens, UniProt P49591 1-514, S101A;S241A)
Test: EMSA; not attenuated relative to WT; EMSA: 20 mM Tris-HCl pH 8.0, 60 mM KCl, 5 mM MgCl2, 0.1 mg/mL BSA, 10 ng/uL poly(dG-dC), 1 mM DTT, 30 min, room temperature; 0.08 pmol labeled DNA; 5% native PAGE
Settings: protein: recombinant; tags: C-terminal His6; chain copies: 2; label: 5'-32P; annealed oligonucleotides

SerRS AA, sequence (P49591 whole entry S101A/S241A): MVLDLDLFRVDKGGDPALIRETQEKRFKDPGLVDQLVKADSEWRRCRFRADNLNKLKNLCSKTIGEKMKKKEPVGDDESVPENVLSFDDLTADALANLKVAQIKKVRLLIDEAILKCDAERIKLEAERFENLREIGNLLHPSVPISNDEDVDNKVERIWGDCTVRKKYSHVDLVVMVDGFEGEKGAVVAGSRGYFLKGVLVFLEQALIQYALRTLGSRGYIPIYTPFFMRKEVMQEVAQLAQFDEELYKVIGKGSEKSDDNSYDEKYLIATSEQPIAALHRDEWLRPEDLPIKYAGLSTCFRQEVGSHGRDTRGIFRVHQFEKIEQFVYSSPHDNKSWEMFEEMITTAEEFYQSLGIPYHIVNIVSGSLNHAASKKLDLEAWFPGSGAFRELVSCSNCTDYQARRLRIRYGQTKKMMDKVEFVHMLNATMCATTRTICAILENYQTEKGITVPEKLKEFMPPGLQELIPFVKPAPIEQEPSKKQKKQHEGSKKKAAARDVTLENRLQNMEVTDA

B1: VEGFA promoter SerRS binding site 27 bp (dsDNA)
DNA 1: GGCGGGGCGGAGCCATGCGCCCCCCCC
DNA 2: GGGGGGGGCGCATGGCTCCGCCCCGCC
B1: binds.
